According to publication PMC9405932:

Target: BCAS1-SV1 (novel splice variant of BCAS1), full length, Gal4 fusion for yeast two-hybrid (human)
Sequence (O75363 whole entry, change not shown, the tested form may be a part, canonical isoform): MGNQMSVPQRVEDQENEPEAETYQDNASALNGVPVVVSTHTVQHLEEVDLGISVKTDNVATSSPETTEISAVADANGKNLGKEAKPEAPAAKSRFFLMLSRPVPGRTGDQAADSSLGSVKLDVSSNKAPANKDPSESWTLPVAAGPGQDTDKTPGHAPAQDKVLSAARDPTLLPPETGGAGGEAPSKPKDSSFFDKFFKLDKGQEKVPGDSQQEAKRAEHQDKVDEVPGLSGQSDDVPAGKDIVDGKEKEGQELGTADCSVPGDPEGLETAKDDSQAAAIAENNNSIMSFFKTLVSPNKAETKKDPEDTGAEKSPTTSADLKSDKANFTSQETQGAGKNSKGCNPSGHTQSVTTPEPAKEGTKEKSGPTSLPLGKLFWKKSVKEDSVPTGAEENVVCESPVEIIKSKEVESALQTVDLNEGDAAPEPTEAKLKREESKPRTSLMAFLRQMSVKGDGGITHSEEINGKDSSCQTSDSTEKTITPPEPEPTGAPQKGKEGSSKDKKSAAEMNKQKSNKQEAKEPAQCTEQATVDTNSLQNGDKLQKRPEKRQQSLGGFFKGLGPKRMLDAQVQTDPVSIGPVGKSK

β-arrestin 2 (ARRB2), full length, Gal4 fusion for yeast two-hybrid (from UniProt P32121-1 1-409) (natural protein)
decrease of migration of GBM8401 cells (scratch wound assay) by maackiain (MK), dose series up to 1 μM; MK is said to disrupt the pair: 67% | decrease of migration of M059K cells (scratch wound assay) by maackiain (MK), dose series up to 1 μM; MK is said to disrupt the pair: 70%
